Experimental findings from patent US20190241886A1 (ADAGENE, published 2019) are described below.

In test [1] the target is T1, Recombinant human CTLA4-Fc (human, UniProt P16410 36-161, limits assumed).
T1 construct: Coated on the ELISA plate at 1 ug/mL; also called antigen; not shown: Fc part
T1 sequence (looked up): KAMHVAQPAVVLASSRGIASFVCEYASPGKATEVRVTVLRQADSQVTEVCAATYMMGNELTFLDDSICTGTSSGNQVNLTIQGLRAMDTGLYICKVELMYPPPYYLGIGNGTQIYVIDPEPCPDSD
Kind of test: ELISA EC50 divided by EC50 of parental TY21580 (FIG. 24A). As to the method:
(§1) Recombinant human CTLA4-Fc was diluted to 1μg/mL in PBS and coated on a Maxisorp plate at 4° C. overnight. Plates were blocked with PBS supplemented with 3% non-fat milk at 37° C. for 1 hour. After washing, 100 μL of 3-fold serial dilutions of antibodies were added to each well. After incubation at 37° C. for 1 hour, plates were washed four times, and 100 μL HRP conjugated anti-human IgG (Fab specific) (1:6000 dilution) was added to each well. Plates were incubated at 37° C. for 1 hour, washed four times, and then 50 μL TMB substrate solution was added to each well, and the plate was incubated at room temperature. Absorbance at 450 nm was measured after the reactions were stopped with 50 μL H₂SO₄ per well. The EC₅₀ was evaluated by fitting the ELISA data using the asymmetrical sigmoidal (five-parameter logistic equation) model of GraphPad Prism 6 software.
(An ELISA detects its analyte on a solid surface through an enzyme-linked reagent.)

The target in test [2] is T1, Recombinant human CTLA4-Fc. Kind of test: ELISA EC50 divided by EC50 of parental TY21580 (FIG. 24B). As to the method: as §1
In test [3] the target is T1, Recombinant human CTLA4-Fc. Kind of test: ELISA EC50 divided by EC50 of parental TY21580 (FIG. 25). As for the experimental part: as §1

B1: TY22402 (as listed in Table 11) (antibody, V domains shown)
VH: EVQLVESGGGLVQPGGSLRLSCAASGYSISSGYHWSWIRQAPGKGLEWLARIDWDDDKYYSTSLKSRLTISRDNSKNTLYLQLNSLRAEDTAVYYCARSYVYFDYWGQGTLVTVSS
VL: EVGSYIVHHSDCDAFYPYCDSSGRSAGGGGTPLGLAGSGGSDIQLTQSPSSLSASVGDRVTITCRASQSVRGRFLAWYQQKPGKAPKLLIYDASNRATGIPSRFSGSGSGTDFTLTISSLQPEDFATYYCQQSSSWPPTFGQGTKVEIKR
notes: kept apart from m3; Expressed in mammalian cells; isotype not restated
With B1, the Masking efficiency in test [1] turned out to be 243; in test [2], 554.

B2: TY22404 (as listed in Tables 11 and 14) (antibody, V domains shown)
VH: B1 VH
VL: EVGSYPNPSSDCVPYYYACAYSGRSAGGGGTPLGLAGSGGSDIQLTQSPSSLSASVGDRVTITCRASQSVRGRFLAWYQQKPGKAPKLLIYDASNRATGIPSRFSGSGSGTDFTLTISSLQPEDFATYYCQQSSSWPPTFGQGTKVEIKR
notes: kept apart from m5; Expressed in mammalian cells; isotype not restated
As to B2, the Masking efficiency in test [3] is 469; in test [1] it was 308; in test [2], 572.
